Experimental data published in US20050239141A1.

T1: rat CD5 antigen present on rat T cells (rat) (UniProt P51882)
T1 sequence (looked up): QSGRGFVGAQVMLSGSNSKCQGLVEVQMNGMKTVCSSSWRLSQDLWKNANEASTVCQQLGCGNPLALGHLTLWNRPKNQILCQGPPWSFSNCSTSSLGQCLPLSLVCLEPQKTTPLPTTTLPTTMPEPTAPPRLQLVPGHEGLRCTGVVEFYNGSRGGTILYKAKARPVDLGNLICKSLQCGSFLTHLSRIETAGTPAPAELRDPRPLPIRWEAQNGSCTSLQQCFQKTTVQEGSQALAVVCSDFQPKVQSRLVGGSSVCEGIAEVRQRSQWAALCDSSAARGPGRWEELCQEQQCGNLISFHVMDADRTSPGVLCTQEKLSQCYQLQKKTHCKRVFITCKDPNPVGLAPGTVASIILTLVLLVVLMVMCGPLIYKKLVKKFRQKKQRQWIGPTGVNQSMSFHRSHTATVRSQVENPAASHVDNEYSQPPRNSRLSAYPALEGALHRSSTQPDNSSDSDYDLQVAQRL


Tests used:
[1] = target: T1, rat CD5 antigen present on rat T cells (rat); assay: flow cytometry, blood T cells of a rat 3 h after 0.5 mg/kg i.v.
[2] = target: T1, rat CD5 antigen present on rat T cells (rat); assay: flow cytometry, spleen T cells of a rat 3 h after 0.5 mg/kg i.v.
[3] = target: T1, rat CD5 antigen present on rat T cells (rat); assay: flow cytometry, lymph node T cells of a rat 3 h after 0.5 mg/kg i.v.
[4] = target: T1, rat CD5 antigen present on rat T cells (rat); assay: flow cytometry, blood T cells of a rat 3 h after 0.5 mg/kg i.v. (isotype matched negative control)
[5] = target: T1, rat CD5 antigen present on rat T cells (rat); assay: flow cytometry, spleen T cells of a rat 3 h after 0.5 mg/kg i.v. (isotype matched negative control)
[6] = target: T1, rat CD5 antigen present on rat T cells (rat); assay: flow cytometry, lymph node T cells of a rat 3 h after 0.5 mg/kg i.v. (isotype matched negative control)

| % of CD4 cells also positive for mouse IgG1 [1] [%] | % of CD8 cells also positive for mouse IgG1 [1] [%] | % of CD4 cells also positive for mouse IgG1 [2] [%] | % of CD8 cells also positive for mouse IgG1 [2] [%] | % of CD4 cells also positive for mouse IgG1 [3] [%] | % of CD8 cells also positive for mouse IgG1 [3] [%] | % of CD4 cells also positive for mouse IgG1 [4] [%] | % of CD8 cells also positive for mouse IgG1 [4] [%] | % of CD4 cells also positive for mouse IgG1 [5] [%] | % of CD8 cells also positive for mouse IgG1 [5] [%] | % of CD4 cells also positive for mouse IgG1 [6] [%] | % of CD8 cells also positive for mouse IgG1 [6] [%] | Molecule |
| --- | --- | --- | --- | --- | --- | --- | --- | --- | --- | --- | --- | --- |
| 96.2 | 70.2 | 84.8 | 73.6 | 96.2 | 96.8 |  |  |  |  |  |  | OX19 MoAb (antibody) |
|  |  |  |  |  |  | 6.7 | 5.7 | 14.8 | 20.6 | 4.2 | 6.5 | MoAb H65 (antibody, V domains shown) VH: QIQLVQSGPELKKPGETVKISCKASGYTFTNYGMNWVKQAPGKGLRWMGWINTHTGEPTYADDFKGRFAFSLETSASTAYLQINNLKNEDTATYFCTRRGYDWYFDVWGAGTTVTVSS VL: DIKMTQSPSSMYASLGERVTITCKASQDINSYLSWFQQKPGKSPKTLIYRANRLVDGVPSRFSGSGSGQDYSLTISSLDYEDMGIYYCQQYDESPWTFGGGTKLEIK |
